Experimental findings from IntAct's records for PubMed 20802463 are described below.

In assay [1] the target is rfa2_human RPA2 (UniProt P15927).
The target is the same in assay [2]. This is another data set of the same source.

Sequence of rfa2_human RPA2 (P15927 whole entry): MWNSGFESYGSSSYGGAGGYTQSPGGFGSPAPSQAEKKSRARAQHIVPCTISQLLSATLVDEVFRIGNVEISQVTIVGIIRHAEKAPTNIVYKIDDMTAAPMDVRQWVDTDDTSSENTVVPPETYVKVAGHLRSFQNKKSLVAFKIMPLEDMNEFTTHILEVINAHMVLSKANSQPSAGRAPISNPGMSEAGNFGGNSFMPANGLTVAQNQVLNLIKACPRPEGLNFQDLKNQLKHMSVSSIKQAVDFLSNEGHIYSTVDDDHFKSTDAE

Take “Bifunctional 3'-5' exonuclease/ATP-dependent helicase WRN (Homo sapiens), Q14191 S991A”: in assay [1], the “effect of a mutation on the interaction” value was “disrupting interaction”.

Regarding “Bifunctional 3'-5' exonuclease/ATP-dependent helicase WRN (Homo sapiens), Q14191 S1058A”, the “effect of a mutation on the interaction” value in assay [2] was “disrupting interaction”.

As for “Bifunctional 3'-5' exonuclease/ATP-dependent helicase WRN (Homo sapiens), Q14191 S1141A”, the “effect of a mutation on the interaction” value in assay [2] was “disrupting interaction”.

In the case of “Bifunctional 3'-5' exonuclease/ATP-dependent helicase WRN (Homo sapiens), Q14191 S1256A”, the “effect of a mutation on the interaction” value in assay [1] is “disrupting interaction”.

Take “Bifunctional 3'-5' exonuclease/ATP-dependent helicase WRN (Homo sapiens), Q14191 S1292A”: the “effect of a mutation on the interaction” value in assay [2] is on record as “disrupting interaction”.

As for “Bifunctional 3'-5' exonuclease/ATP-dependent helicase WRN (Homo sapiens), Q14191 T1152A”, the “effect of a mutation on the interaction” value in assay [1] was “disrupting interaction”.
